This note sets out measurements from article PMC10653885 (mBio, 2023).

Data set [1] addresses recombinant BB0323 (rBB0323) (Borrelia burgdorferi) (UniProt O51302). In words: MST; 10 nM target protein labelled with Red-tris-NTA dye; 12-point 1:1 serial dilution of the ligand from 20 µM; PBS + 0.05% Tween-20, pH 7.4; 40% MST power, 10% LED power; TJump analysis, KD fit model of 1:1 stoichiometry; three biological replicates.
Data set [2] deals with recombinant wild-type BB0238 (rBB0238^WT) (Borrelia burgdorferi B31) (UniProt O51254). The data set is described as above.
Data set [3] deals with recombinant BB0238 P65A (rP65A) (Borrelia burgdorferi B31). Put plainly: SEC; analytical size exclusion chromatography on a calibrated Superose 12 column; apparent molecular masses from a standard curve. On the technique in general: In gel filtration, larger molecules generally elute earlier.
The target in data set [4] is recombinant BB0238 Y37A (rY37A) (Borrelia burgdorferi B31). Described as above.
Data set [5] addresses recombinant BB0238 P65A (rP65A) (Borrelia burgdorferi B31). Put plainly: MST; 10 nM target protein labelled with Red-tris-NTA dye; 12-point 1:1 serial dilution of the ligand from 20 µM; PBS + 0.05% Tween-20, pH 7.4; 40% MST power, 10% LED power; TJump analysis, KD fit model of 1:1 stoichiometry; three biological replicates.
For data set [6], the target named is recombinant BB0238 Y37A (rY37A) (Borrelia burgdorferi B31). The description is as above.
Data set [7] concerns the molecule itself. Put plainly: SEC; analytical size exclusion chromatography on a calibrated Superose 12 column; apparent molecular masses from a standard curve.
In data set [8] the target is T1, recombinant BB0323 (rBB0323) (Borrelia burgdorferi, UniProt O51302 1-377, labelled with NanoTemper Red-tris-NTA dye (only in the MST with BB0108)).
T1 sequence: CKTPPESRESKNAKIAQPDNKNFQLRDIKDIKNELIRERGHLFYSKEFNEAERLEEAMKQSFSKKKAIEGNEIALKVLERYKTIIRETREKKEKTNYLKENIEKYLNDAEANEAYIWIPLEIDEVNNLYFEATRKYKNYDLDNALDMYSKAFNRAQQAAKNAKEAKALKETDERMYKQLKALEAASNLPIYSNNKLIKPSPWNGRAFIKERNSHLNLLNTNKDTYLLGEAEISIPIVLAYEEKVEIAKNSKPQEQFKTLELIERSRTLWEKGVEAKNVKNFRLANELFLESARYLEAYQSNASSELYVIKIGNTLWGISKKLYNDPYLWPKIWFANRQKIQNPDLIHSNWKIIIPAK
Put plainly: MST; 10 nM target protein labelled with Red-tris-NTA dye; 12-point 1:1 serial dilution of the ligand from 20 µM; PBS + 0.05% Tween-20, pH 7.4; 40% MST power, 10% LED power; TJump analysis, KD fit model of 1:1 stoichiometry; three biological replicates. The conditions noted are these: both partners purified.

Regarding recombinant BB0108 (enzyme), the dissociation constant Kd in data set [1] came out at 2330 nM; in data set [2], 1890 nM. For “recombinant BB0238 P65A (rP65A) (natural protein)”, in data set [3], the stoichiometry N turned out to be 2. With “recombinant BB0238 Y37A (rY37A) (natural protein)”, the stoichiometry N in data set [4] was found to be 2. For the molecule “recombinant BB0323 (rBB0323) (from UniProt O51302 1-377) (natural protein)”, the dissociation constant (Kd) came out at 702 nM in data set [5] and 658 nM in data set [6].

B1: recombinant wild-type BB0238 (rBB0238^WT) (natural protein)
chain: SSYIDKQKELAIFYYEVGQRYINVGKIKKGKLFQAKALKIYPDLKKGFDIKLAVKELDARIKDDNPKVVMLEDIKLEEIPGIVHEKIEINDFTNAPKIEYIAQRERSKNQDKIIKFQFGKFARALISRNFDLFDSVIADKVNVMGQFESKNDFISTLSSASSKADADELEYLSVDDYYDLKSLKISKSNDTSFAVNVNAKKNDVTKNFPFWKERQTLIFTTEDDNNWFLSSIN
modifications: labelled with NanoTemper Red-tris-NTA dye (in MST only)
B1: in data set [7], the “stoichiometry N” value came out at 2. Moreover, the Kd in data set [8] is 1000 nM.

A word on the Kd: it is the free concentration of one partner at which half of the binding sites on the other are occupied at equilibrium, for simple one-to-one binding. As a reminder, the stoichiometry N is the number of molecules, sites or subunits per partner or assembly.
